Test results published in publication PMC8984176, “Tuftsin: A Natural Molecule Against SARS-CoV-2 Infection” (Frontiers in Molecular Biosciences, 2022).
pKd: −log10 of the molar value.

Legend:
[1] = target: recombinant human ACE2 protein (human) (UniProt Q9BYF1); assay: SPR; Biacore T200; ACE2 or NRP1 amine-coupled on a CM5 chip (about 10,000 RU); tuftsin flowed at gradient concentrations; 25°C, 30 µl/min; 1×PBS, 0.05% Tween 20, 5% dimethyl sulfoxide, pH 7.4; steady state affinity model
[2] = target: recombinant human NRP1 protein (human) (UniProt O14786); assay: as above

recombinant human ACE2 protein (human), sequence (Q9BYF1 18-740): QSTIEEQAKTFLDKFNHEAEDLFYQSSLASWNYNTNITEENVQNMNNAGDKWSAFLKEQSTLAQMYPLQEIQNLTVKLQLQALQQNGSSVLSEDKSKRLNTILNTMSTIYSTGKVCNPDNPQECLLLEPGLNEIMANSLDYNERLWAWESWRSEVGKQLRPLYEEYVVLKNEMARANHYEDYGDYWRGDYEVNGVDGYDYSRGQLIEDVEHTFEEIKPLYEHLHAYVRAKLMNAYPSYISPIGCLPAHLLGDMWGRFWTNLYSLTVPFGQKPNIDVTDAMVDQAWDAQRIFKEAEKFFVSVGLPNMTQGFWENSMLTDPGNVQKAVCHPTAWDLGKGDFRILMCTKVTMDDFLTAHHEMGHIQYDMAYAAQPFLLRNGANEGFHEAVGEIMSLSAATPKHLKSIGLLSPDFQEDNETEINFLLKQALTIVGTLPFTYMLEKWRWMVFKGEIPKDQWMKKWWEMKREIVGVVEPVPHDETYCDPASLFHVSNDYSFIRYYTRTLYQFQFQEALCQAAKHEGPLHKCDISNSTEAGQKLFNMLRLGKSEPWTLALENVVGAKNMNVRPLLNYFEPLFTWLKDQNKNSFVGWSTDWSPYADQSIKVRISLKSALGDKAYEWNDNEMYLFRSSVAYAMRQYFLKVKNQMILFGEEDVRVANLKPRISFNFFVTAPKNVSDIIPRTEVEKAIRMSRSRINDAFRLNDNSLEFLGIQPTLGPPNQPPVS

- pKd [1]: 3.34
- pKd [2]: 4.97
Substance: tuftsin (peptide)
